Read-outs that look alike come from different tables or passages of the source.
Experiments:
[1] = tested on: A549 cells; assay: Actin staining; type: cell-based, human
Experimental: A549 cells (1×10^4 cells/well) were seeded onto 24 wells with coverslip. A549 cells were pretreated with various concentrations of GMI (2, 4, 8 μg/ml) for 1 h before being stimulated with 10 ng/mL EGF for 23 h. A549 cells treated with or without EGF were stained with Texas Red®-X phalloidin and Alexa Fluor 488 DNase I conjugate to detect F-actin (red) and G-actin (green).
Cells were washed twice with PBS and fixed in a 3.7% paraformaldehyde-PBS solution for 10 min at room temperature. After two additional washes with PBS, cells were permeabilized with a solution of 0.1% Triton X-100 in PBS for 3 to 5 min and washed again with PBS. Texas Red-X phalloidin (2 units/mL) and Alexa Fluor 488 DNase I conjugate (9 μg/mL) were used to localize filamentous actin (F-actin) and G-actin. Fluorescent dyes were diluted with blocking solution (1% bovine serum albumin and 0.025% saponin in PBS) and added to coverslips for 60 min at room temperature. After three washes with PBS, coverslips were mounted on a microscope slide with Prolong Gold antifade reagent with DAPI (Life Technologies). F-actin cytoskeleton imaging was performed with a confocal laser scanning microscope (ZEISS LSM510 BETA) at ×400 magnification.

[2] = tested on: HOP-62; type: cell-based
[3] = tested on: NCI-H460; type: cell-based
[4] = tested on: NCI-H522; type: cell-based
[5] = tested on: COLO 205; assay: NCI60 in vitro screening, Colon Cancer; type: cell-based
[6] = tested on: KM12; assay: NCI60 in vitro screening, Colon Cancer; type: cell-based
[7] = tested on: SW-620; assay: NCI60 in vitro screening, Colon Cancer; type: cell-based
[8] = tested on: SF-539; assay: NCI60 in vitro screening, CNS Cancer; type: cell-based
[9] = tested on: UACC-257; assay: NCI60 in vitro screening, Melanoma; type: cell-based
[10] = tested on: IGROV1; assay: NCI60 in vitro screening, Ovarian Cancer; type: cell-based
[11] = tested on: ACHN; assay: NCI60 in vitro screening, Renal Cancer; type: cell-based
[12] = tested on: MCF7; assay: NCI60 in vitro screening, Breast Cancer; type: cell-based
[13] = tested on: MDA-MB-231/ATCC; assay: NCI60 in vitro screening, Breast Cancer; type: cell-based
[14] = tested on: U251; assay: NCI60 in vitro screening, CNS Cancer; type: cell-based; details: U251, one dose
[15] = tested on: A549/D16; assay: MTT assay, drug sensitivity; type: cell-based, human; details: A549/D16, 48 h, MTT
Experimental: (§1) A549 cell line and resistant A549 cell sublines (A549/D16, A549/D32 and A549/V16) (5000 cells/well of 96-well plate) were treated with increased doses concentrations (μM) of GMI from Ganoderma microsporum, docetaxel, vincristine and doxorubicin for 48 h, respectively. Cell viability was measured by MTT assay and the results are presented as the calculated cell growth inhibitory ratio. Experiments were repeated three times.

[16] = tested on: A549/V16; assay: MTT assay, drug sensitivity; type: cell-based, human; details: A549/V16, 48 h, MTT
Experimental: as §1

[17] = tested on: A549; assay: MTT assay, drug sensitivity; type: cell-based, human; details: A549, 48 h, MTT
Experimental: as §1

B1: GMI: immunomodulatory protein from Ganoderma microsporum, amino acid sequence SEQ ID NO: 3, manufactured by Mycomagic Biotechnology Co., Ltd. (protein, listed as Ganoderma microsporum)
chain: MSDTALIFTLAWNVKQLAFDYTPNWGRGRPSSFIDTVTFPTVLTDKAYTYRVVVSGKDLGVRPSYAVESDGSQKINFLEYNSGYGIADTNTIQVYVIDPDTGNNFIVAQWN
Q: Which results are given for B1?
A: elongation and polymerization of F-actin and G-actin ([1]; A549 cells treated with EGF or GMI alone): abrogated; filopodia formation ([1]; A549 cells, GMI 2, 4, 8 μg/ml, EGF 10 ng/mL): fewer filopodia fibers; focal contact size ([1]; A549 cells, GMI alone and combined with EGF): reduced by GMI in a dose-dependent manner; TGI ([2]; HOP-62): 5.99E1; Percent Growth ([2]; HOP-62, Log10 Concentration 0.1): 102%; Percent Growth ([2]; HOP-62, Log10 Concentration 1.1): 73%; Percent Growth ([2]; HOP-62, Log10 Concentration 2.1): −34%; Percent Growth ([2]; HOP-62, Log10 Concentration −0.9): 102%; Percent Growth ([2]; HOP-62, Log10 Concentration −1.9): 104%; Growth Percent ([2]; HOP-62, one dose): 53.89%; GI50 ([2]; HOP-62, in µg/mL): 2.03E1; TGI ([3]; NCI-H460): >1.25E2; Percent Growth ([3]; NCI-H460, Log10 Concentration 0.1): 100%; Percent Growth ([3]; NCI-H460, Log10 Concentration 1.1): 91%; Percent Growth ([3]; NCI-H460, Log10 Concentration 2.1): 33%; Percent Growth ([3]; NCI-H460, Log10 Concentration −0.9): 104%; Percent Growth ([3]; NCI-H460, Log10 Concentration −1.9): 103%; Growth Percent ([3]; NCI-H460, one dose): 86.38%; GI50 ([3]; NCI-H460, in µg/mL): 6.47E1; TGI ([4]; NCI-H522): 1.25E2; Percent Growth ([4]; NCI-H522, Log10 Concentration 0.1): 105%; Percent Growth ([4]; NCI-H522, Log10 Concentration 1.1): 98%; Percent Growth ([4]; NCI-H522, Log10 Concentration 2.1): 53%; Percent Growth ([4]; NCI-H522, Log10 Concentration −0.9): 100%; Percent Growth ([4]; NCI-H522, Log10 Concentration −1.9): 95%; Growth Percent ([4]; NCI-H522, one dose): 125.90%; TGI ([5]; COLO 205): >1.25E2; Percent Growth ([5]; COLO 205, Log10 Concentration 0.1): 100%; Percent Growth ([5]; COLO 205, Log10 Concentration 1.1): 95%; Percent Growth ([5]; COLO 205, Log10 Concentration 2.1): 95%; Percent Growth ([5]; COLO 205, Log10 Concentration −0.9): 98%; Percent Growth ([5]; COLO 205, Log10 Concentration −1.9): 95%; Growth Percent ([5]; COLO 205, one dose): 105.56%; TGI ([6]; KM12): >1.25E2; Percent Growth ([6]; KM12, Log10 Concentration 0.1): 104%; Percent Growth ([6]; KM12, Log10 Concentration 1.1): 89%; Percent Growth ([6]; KM12, Log10 Concentration 2.1): 43%; Percent Growth ([6]; KM12, Log10 Concentration −0.9): 96%; Percent Growth ([6]; KM12, Log10 Concentration −1.9): 100%; Growth Percent ([6]; KM12, one dose): 62.96%; GI50 ([6]; KM12, in µg/mL): 8.92E1; TGI ([7]; SW-620): >1.25E2; Percent Growth ([7]; SW-620, Log10 Concentration 0.1): 102%; Percent Growth ([7]; SW-620, Log10 Concentration 1.1): 95%; Percent Growth ([7]; SW-620, Log10 Concentration 2.1): 53%; Percent Growth ([7]; SW-620, Log10 Concentration −0.9): 100%; Percent Growth ([7]; SW-620, Log10 Concentration −1.9): 102%; Growth Percent ([7]; SW-620, one dose): 87.57%; TGI ([8]; SF-539): 6.02E1; Percent Growth ([8]; SF-539, Log10 Concentration 0.1): 102%; Percent Growth ([8]; SF-539, Log10 Concentration 1.1): 80%; Percent Growth ([8]; SF-539, Log10 Concentration 2.1): −37%; Percent Growth ([8]; SF-539, Log10 Concentration −0.9): 111%; Percent Growth ([8]; SF-539, Log10 Concentration −1.9): 108%; Growth Percent ([8]; SF-539, one dose): 48.19%; GI50 ([8]; SF-539, in µg/mL): 2.26E1; TGI ([9]; UACC-257): >1.25E2; Percent Growth ([9]; UACC-257, Log10 Concentration 0.1): 98%; Percent Growth ([9]; UACC-257, Log10 Concentration 1.1): 37%; Percent Growth ([9]; UACC-257, Log10 Concentration 2.1): 52%; Percent Growth ([9]; UACC-257, Log10 Concentration −0.9): 99%; Percent Growth ([9]; UACC-257, Log10 Concentration −1.9): 103%; Growth Percent ([9]; UACC-257, one dose): 89.25%; TGI ([10]; IGROV1): >1.25E2; Percent Growth ([10]; IGROV1, Log10 Concentration 0.1): 117%; Percent Growth ([10]; IGROV1, Log10 Concentration 1.1): 62%; Percent Growth ([10]; IGROV1, Log10 Concentration 2.1): 30%; Percent Growth ([10]; IGROV1, Log10 Concentration −0.9): 98%; Percent Growth ([10]; IGROV1, Log10 Concentration −1.9): 103%; Growth Percent ([10]; IGROV1, one dose): 30.07%; GI50 ([10]; IGROV1, in µg/mL): 2.94E1; TGI [11]: 3.62E1; Percent Growth ([11]; Log10 Concentration 0.1): 103%; Percent Growth ([11]; Log10 Concentration 1.1): 36%; Percent Growth ([11]; Log10 Concentration 2.1): −42%; Percent Growth ([11]; Log10 Concentration −0.9): 99%; Percent Growth ([11]; Log10 Concentration −1.9): 109%; GI50 ([11]; in µg/mL): 7.65E0; Growth Percent ([11]; one dose): −33.94%; TGI ([12]; MCF7): >1.25E2; Percent Growth ([12]; MCF7, Log10 Concentration 0.1): 93%; Percent Growth ([12]; MCF7, Log10 Concentration 1.1): 49%; Percent Growth ([12]; MCF7, Log10 Concentration 2.1): 23%; Percent Growth ([12]; MCF7, Log10 Concentration −0.9): 104%; Percent Growth ([12]; MCF7, Log10 Concentration −1.9): 100%; Growth Percent ([12]; MCF7, one dose): 42.68%; GI50 ([12]; MCF7, in µg/mL): 1.15E1; TGI [13]: 3.65E1; Percent Growth ([13]; Log10 Concentration 0.1): 93%; Percent Growth ([13]; Log10 Concentration 1.1): 41%; Percent Growth ([13]; Log10 Concentration 2.1): −47%; Percent Growth ([13]; Log10 Concentration −0.9): 96%; Percent Growth ([13]; Log10 Concentration −1.9): 103%; GI50 ([13]; in µg/mL): 8.34E0; Growth Percent ([13]; one dose): 23.69%; Growth Percent [14]: 69.04%; IC50 ± SD [15]: 11.37 ± 0.55 µg/mL; IC50 ± SD [16]: 13.10 ± 0.17 µg/mL; IC50 ± SD [17]: 15.73 ± 0.42 µg/mL

From patent US9018171B2, “Uses of an immunomodulatory protein (GMI) from Ganoderma microsporum” (Mycomagic Biotechnology Co., Ltd., priority 2010, dated 2015)
